# Test results reported in IntAct's records for PubMed 31515488.
# B1: Tuftelin-interacting protein 11 (Homo sapiens), Q9UBB9 (parent)
# chain: MSLSHLYRDGEGRIDDDDDERENFEITDWDLQNEFNPNRQRHWQTKEEATYGVWAERDSDDERPSFGGKRARDYSAPVNFISAGLKKGAAEEAELEDSDDEEKPVKQDDFPKDFGPRKLKTGGNFKPSQKGFAGGTKSFMDFGSWERHTKGIGQKLLQKMGYVPGRGLGKNAQGIINPIEAKQRKGKGAVGAYGSERTTQSMQDFPVVDSEEEAEEEFQKELSQWRKDPSGSKKKPKYSYKTVEELKAKGRISKKLTAPQKELSQVKVIDMTGREQKVYYSYSQISHKHNVPDDGLPLQSQQLPQSGKEAKAPGFALPELEHNLQLLIDLTEQEIIQNDRQLQYERDMVVNLFHELEKMTEVLDHEERVISNLSKVLEMVEECERRMQPDCSNPLTLDECARIFETLQDKYYEEYRMSDRVDLAVAIVYPLMKEYFKEWDPLKDCTYGTEIISKWKSLLENDQLLSHGGQDLSADAFHRLIWEVWMPFVRNIVTQWQPRNCDPMVDFLDSWVHIIPVWILDNILDQLIFPKLQKEVENWNPLTDTVPIHSWIHPWLPLMQARLEPLYSPIRSKLSSALQKWHPSDSSAKLILQPWKDVFTPGSWEAFMVKNIVPKLGMCLGELVINPHQQHMDAFYWVIDWEGMISVSSLVGLLEKHFFPKWLQVLCSWLSNSPNYEEITKWYLGWKSMFSDQVLAHPSVKDKFNEALDIMNRAVSSNVGAYMQPGARENIAYLTHTERRKDFQYEAMQERREAENMAQRGIGVAASSVPMNFKDLIETKAEEHNIVFMPVIGKRHEGKQLYTFGRIVIYIDRGVVFVQGEKTWVPTSLQSLIDMAK
# partner: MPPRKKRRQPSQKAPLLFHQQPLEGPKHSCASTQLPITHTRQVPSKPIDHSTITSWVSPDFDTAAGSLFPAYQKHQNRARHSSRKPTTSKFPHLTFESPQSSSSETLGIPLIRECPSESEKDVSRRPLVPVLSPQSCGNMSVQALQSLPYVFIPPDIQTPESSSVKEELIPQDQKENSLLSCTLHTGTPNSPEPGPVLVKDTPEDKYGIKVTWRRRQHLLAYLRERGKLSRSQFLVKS
# B2: Ornithine decarboxylase antizyme 3 (Homo sapiens), Q9UMX2 (parent)
# chain: MPCKRCRPSVYSLSYIKRGKTRNYLYPIWSPYAYYLYCYKYRITLREKMLPRCYKSITYKEEEDLTLQPRSCLQCSESLVGLQEGKSTEQGNHDQLKELYSAGNLTVLATDPLLHQDPVQLDFHFRLTSQTSAHWHGLLCDRRLFLDIPYQALDQGNRESLTATLEYVEEKTNVDSVFVNFQNDRNDRGALLRAFSYMGFEVVRPDHPALPPLDNVIFMVYPLERDVGHLPSEPP
# partner: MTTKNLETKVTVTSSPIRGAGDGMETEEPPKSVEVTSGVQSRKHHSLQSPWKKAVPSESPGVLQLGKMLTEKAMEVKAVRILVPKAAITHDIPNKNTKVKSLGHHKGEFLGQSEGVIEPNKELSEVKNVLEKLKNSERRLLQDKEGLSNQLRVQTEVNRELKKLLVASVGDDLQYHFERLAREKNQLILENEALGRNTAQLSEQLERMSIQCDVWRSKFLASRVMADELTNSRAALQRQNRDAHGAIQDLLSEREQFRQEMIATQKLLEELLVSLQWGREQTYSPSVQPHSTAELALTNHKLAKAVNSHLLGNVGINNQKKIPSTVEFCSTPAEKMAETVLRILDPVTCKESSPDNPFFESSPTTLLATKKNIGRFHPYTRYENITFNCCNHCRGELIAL
# B3: Germ cell-less protein-like 1 (Homo sapiens), Q96IK5 (parent)
# chain: MGSLSSRVLRQPRPALAQQAQGARAGGSARRPDTGDDAAGHGFCYCAGSHKRKRSSGSFCYCHPDSETDEDEEEGDEQQRLLNTPRRKKLKSTSKYIYQTLFLNGENSDIKICALGEEWSLHKIYLCQSGYFSSMFSGSWKESSMNIIELEIPDQNIDVEALQVAFGSLYRDDVLIKPSRVVAILAAACLLQLDGLIQQCGETMKETVNVKTVCGYYTSAGTYGLDSVKKKCLEWLLNNLMTHQNVELFKELSINVMKQLIGSSNLFVMQVEMDIYTALKKWMFLQLVPSWNGSLKQLLTETDVWFSKQRKDFEGMAFLETEQGKPFVSVFRHLRLQYIISDLASARIIEQDAVVPSEWLSSVYKQQWFAMLRAEQDSEVGPQEINKEELEGNSMRCGRKLAKDGEYCWRWTGFNFGFDLLVTYTNRYIIFKRNTLNQPCSGSVSLQPRRSIAFRLRLASFDSSGKLICSRTTGYQILTLEKDQEQVVMNLDSRLLIFPLYICCNFLYISPEKKN
# partner: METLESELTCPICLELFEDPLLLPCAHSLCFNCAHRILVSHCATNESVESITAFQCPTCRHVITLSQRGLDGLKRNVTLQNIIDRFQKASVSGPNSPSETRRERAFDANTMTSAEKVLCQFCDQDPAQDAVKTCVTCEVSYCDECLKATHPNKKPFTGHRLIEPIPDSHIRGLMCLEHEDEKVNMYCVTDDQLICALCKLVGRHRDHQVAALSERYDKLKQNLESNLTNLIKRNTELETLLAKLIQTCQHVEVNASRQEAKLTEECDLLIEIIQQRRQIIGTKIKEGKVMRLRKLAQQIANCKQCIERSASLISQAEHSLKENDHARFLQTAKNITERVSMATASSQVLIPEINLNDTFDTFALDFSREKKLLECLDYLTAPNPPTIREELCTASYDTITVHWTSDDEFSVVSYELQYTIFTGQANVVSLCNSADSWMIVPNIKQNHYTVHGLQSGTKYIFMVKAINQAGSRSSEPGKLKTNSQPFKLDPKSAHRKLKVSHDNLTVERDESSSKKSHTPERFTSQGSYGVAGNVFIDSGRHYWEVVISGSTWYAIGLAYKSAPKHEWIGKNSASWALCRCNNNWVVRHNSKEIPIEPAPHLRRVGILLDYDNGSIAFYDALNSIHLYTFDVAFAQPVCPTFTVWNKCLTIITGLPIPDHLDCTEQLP
# Variants of: B1
# Settings: with rhno1_human RHNO1, Q9BSD3
row,Variant,effect of a mutation on the interaction
1,S688L,with no effect
2,R8Q,with no effect

# Variants of: B2
# Settings: with go45_human BLZF1, Q9H2G9
row,Variant,effect of a mutation on the interaction
1,V174A,disrupting interaction strength
2,R193Q,with no effect

# Variants of: B3
# Settings: with tri18_human MID1, O15344
row,Variant,effect of a mutation on the interaction
1,K281Q,with no effect
2,I147V,with no effect
3,R457H,with no effect
4,R449Q,with no effect
5,I340V,with no effect
6,E77K,with no effect
